System: Bacillus subtilis
Test: cleaved RNA product abundance (RNA/gDNA barcode ratio) relative to median wild-type variant (ratio to wild type); higher = more accumulation of the downstream cleavage product
Details: experiment (reporter, strain, medium): exp 8a: truncated aprE reporter, strain BJT201 with 2% xylose (RNase J1 expressed); cleavage site: glnRA (positions -5 to +31 mutated)
Outline: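 Reporter mRNAs based on truncated aprE or tetM carried barcoded, mutagenized RNase Y cleavage-site windows built from oligos with a 9% error rate and were integrated into the B. subtilis chromosome. Cultures grew in LB at 37°C from OD600 0.0003 to 0.3. Cleaved RNA was gel-selected, reverse transcribed and barcode-sequenced together with genomic DNA barcodes, and UMIs were collapsed. Cleaved product abundance is the per-construct ratio of RNA to gDNA barcodes, scaled to the median of constructs carrying the unmutated site.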

Sequence	cleaved RNA product abundance
CGACATGTCCCGCTTCTTTCATTACTCCTTTAGCAACTGTTTTGCTATATACATTTACCTTTTAAGAGGAGGAAT	0.376
CGACATGTCCCGCTTCTTTCATTACTCTGTTAGCAACTGTTTTGCTATATACATTTACCTTTTAAGAGGAGGAAT	0.791
CGACATGTCCCGCTTCTTTCATTACTGCGTTAGCAACTGTTTTGCTATATACATTTACCTTTTAAGAGGAGGAAT	1.68
CGACATGTCCCGCTTCTTTCATTACTTCGTTAGCAACTGTTTTGCTATATACATTTACCTTTTAAGAGGAGGAAT	1.57
CGACATGTCCCGCTTCTTTCATTAGTCAGTTAGCAACTGTTTTGCTATATACATTTACCTTTTAAGAGGAGGAAT	0.249
CGACATGTCCCGCTTCTTTCATTAGTCCGTTACCAACTGTTTTGCTATATACATTTACCTTTTAAGAGGAGGAAT	0.248
CGACATGTCCCGCTTCTTTCATTAGTCCGTTAGCAACAGTTTTGCTATATACATTTACCTTTTAAGAGGAGGAAT	0.968
CGACATGTCCCGCTTCTTTCATTAGTCCGTTAGCAACTGTTTTACTATATACATTTACCTTTTAAGAGGAGGAAT	0.548
CGACATGTCCCGCTTCTTTCATTAGTCCGTTAGCAACTGTTTTCCTATATACATTTACCTTTTAAGAGGAGGAAT	0.352
CGACATGTCCCGCTTCTTTCATTAGTCCGTTAGCAACTGTTTTGATATATACATTTACCTTTTAAGAGGAGGAAT	0.542
CGACATGTCCCGCTTCTTTCATTAGTCCGTTAGCAACTGTTTTGCTATATACATTTACCTTTTAAGAGGAGGAAT	0.767
CGACATGTCCCGCTTCTTTCATTAGTCCGTTAGCAACTGTTTTGCTATATACTTTTACCTTTTAAGAGGAGGAAT	0.341
CGACATGTCCCGCTTCTTTCATTAGTCCGTTAGCAACTGTTTTGCTATATATATTTACCTTTTAAGAGGAGGAAT	0.842
CGACATGTCCCGCTTCTTTCATTAGTCCGTTAGTAACTGTTTTGCTATATACATTTACCTTTTAAGAGGAGGAAT	0.335
CGACATGTCCCGCTTCTTTCATTATACCGTTAGCAACTGTTTTGCTATATACATTTACCTTTTAAGAGGAGGAAT	2.04
CGACATGTCCCGCTTCTTTCATTATCCCGTTAGCAACTGTTTTGCTATATACATTTACCTTTTAAGAGGAGGAAT	1.49
CGACATGTCCCGCTTCTTTCATTATCCCGTTAGCAACTGTTTTGCTATATACTTTTACCTTTTAAGAGGAGGAAT	0.41
CGACATGTCCCGCTTCTTTCATTATCCGTTAGCAACTGTTTTGCTATATACATTTACCTTTTAAGAGGAGGAATT	0.941
CGACATGTCCCGCTTCTTTCATTATGCCGTTAGCAACTGTTTTGCTATATACATTTACCTTTTAAGAGGAGGAAT	1.32
CGACATGTCCCGCTTCTTTCATTATTACGTTACCAACTATTTTGCTATATACATTTATCTTTTAAGAGGAGGAAT	0.242
CGACATGTCCCGCTTCTTTCATTATTACGTTAGCAACCGTTTTGCTATATACATTTACCTTTTAAGAGGAGGAAT	1.06
CGACATGTCCCGCTTCTTTCATTATTACGTTAGCAACTGTTTTGCTATATACATTTACCTTTTAAGAGGAGGAAT	1.27
CGACATGTCCCGCTTCTTTCATTATTCAGTTAGCAACTGTTTTGCTATATACATTTACCTTTTAAGAGGAGGAAT	1.38
CGACATGTCCCGCTTCTTTCATTATTCCAATAGCAACTGTTTTGCTATATACATTTACCTTTTAAGAGGAGGAAT	0.925
CGACATGTCCCGCTTCTTTCATTATTCCATTAGCAACTGTTTTGCTATATACATTTACCTTTTAAGAGGAGGAAT	1.21

Sequence	cleaved RNA product abundance
CGACATGTCCCGCTTCTTTCATTATTCCATTAGCAATTGTTTTGCTATATACATTTACCTTTTAAGAGGAGGAAT	1.33
CGACATGTCCCGCTTCTTTCATTATTCCCTTAGCAACTGTTTTGCTATATACATTTACCTTTTAAGAGGAGGAAT	0.221
CGACATGTCCCGCTTCTTTCATTATTCCGATAGCAACTATTTTGCTATATACATTTACCTTTTAAGAGGAGGAAT	1.85
CGACATGTCCCGCTTCTTTCATTATTCCGATAGCAACTGTTTTGCTATATACATTTACCTTTTAAGAGGAGGAAT	0.898
CGACATGTCCCGCTTCTTTCATTATTCCGATATCAATTGTTTCGCTATATACATTTACCTTTTAAGAGGAGGAAT	0.147
CGACATGTCCCGCTTCTTTCATTATTCCGTAAGCAACTGTTTTGCTATATACATTTACCTTTTAAGAGGAGGAAT	0.594
CGACATGTCCCGCTTCTTTCATTATTCCGTAAGCGACTGTTTTGATATATACATTTACCTTTTAAGAGGGGGAAT	0.359
CGACATGTCCCGCTTCTTTCATTATTCCGTCAGCAACTGTTTTGCTATATACATTTACCTTTTAAGAGGAGGAAT	0.502
CGACATGTCCCGCTTCTTTCATTATTCCGTGAGCAACTGTTTTGATATATACATTTACCTTTTAAGAGGAGGAAT	0.52
CGACATGTCCCGCTTCTTTCATTATTCCGTGAGCAACTGTTTTGCTATATACATTTACCTTTTAAGAGGAGGAAT	0.62
CGACATGTCCCGCTTCTTTCATTATTCCGTGAGCAACTGTTTTTCTATATACATTTACCTTTTAAGAGGAGGAAT	0.407
CGACATGTCCCGCTTCTTTCATTATTCCGTTAACAACAGTTTTGCTATATACATTTACCTTTTAAGAGGAGGAAT	0.271
CGACATGTCCCGCTTCTTTCATTATTCCGTTAACAACTATTTTGCTATATACATTTACCTTTTAAGAGGAGGAAT	0.283
CGACATGTCCCGCTTCTTTCATTATTCCGTTAACAACTGTTTTACTATATACATTTACCTTTTAAGAGGAGGAAT	0.257
CGACATGTCCCGCTTCTTTCATTATTCCGTTAACAACTGTTTTGCTATATACATATACCTTTTAAGAGGAGGAAT	0.239
CGACATGTCCCGCTTCTTTCATTATTCCGTTAACAACTGTTTTGCTATATACATTTACCTTTTAAGAGGAGGAAT	0.312
CGACATGTCCCGCTTCTTTCATTATTCCGTTAACAACTGTTTTGCTATATACATTTATCTTTTAAGAGGAGGAAT	0.27
CGACATGTCCCGCTTCTTTCATTATTCCGTTAACAACTGTTTTGCTATATACTTTTACCTTTTAAGAGGAGGAAT	0.273
CGACATGTCCCGCTTCTTTCATTATTCCGTTAACAACTGTTTTGCTATATTCATTTACCTTTTAAGAGGAGGAAT	0.155
CGACATGTCCCGCTTCTTTCATTATTCCGTTACCAAATGTTTTGCTATATACATTTACCTTTTAAGAGGAGGAAT	0.265
CGACATGTCCCGCTTCTTTCATTATTCCGTTACCAACTGTTTTGCTATATACATTTACCTTTTAAGAGGAGGAAT	0.289
CGACATGTCCCGCTTCTTTCATTATTCCGTTAGAAACTGTTTTGCTATATACACTTACCTTTTAAGAGGAGGAAT	0.302
CGACATGTCCCGCTTCTTTCATTATTCCGTTAGAAACTGTTTTGCTATATACATTTACCTTTTAAGAGGAGGAAT	0.309
CGACATGTCCCGCTTCTTTCATTATTCCGTTAGCAAATGTTGTGCTATATACATTTACCTTTTAAGAGGAGGAAT	0.444
CGACATGTCCCGCTTCTTTCATTATTCCGTTAGCAAATGTTTTGCTATATACATTTACCTTTTAAGAGGAGGAAT	1.75
